Laboratory results: the RNAGym collection of RNA variant scans (doi:10.1073/pnas.2313332121)

B1: TPR t1 (parent)
chain: GACCAAUCUGCCCUCAGAGCUCGAGAACAUCUUCGGAUGCAGAGGAGGCAGGCUUCGGUGGCGCGAUAGCGCCAACGUCCUCAACCUCCAAUGCAUCCCACCACAUGAUGAUGCCUGAAGAGCCUUGGUUUUUUG

Variants of: B1
Experiment: polymerase ribozyme fitness, log enrichment relative to wild type (log ratio); higher = more active; in vitro selection for triplet polymerase activity
Procedure, shortened: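 Fitness is a logarithmic measure of how a genotype enriched relative to the wild type, with replicate averages weighted by inverse variance. The logarithm uses base 2, and enrichment came from Illumina sequencing of input and output libraries. Those libraries were PCR-built, transcribed mutants of each subunit of a heterodimeric triplet polymerase ribozyme, passed through one triplicate in vitro selection round that included frozen incubation at −7 °C, gel excision of extended constructs and streptavidin-bead capture. Genotypes were kept only if they had ≥10 input reads and ≥1 read per output.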

Row | Variant | polymerase ribozyme fitness (log ratio)
1 | C8U U14A A46U C56U | -1.92
2 | C8G U32A A43U G47U G52C C86A U96A | -6.26
3 | C8U C56A U81G G120C | 0.594
4 | C8U G17C G36C | -4.86
5 | C8U C15G G63U U87A | -3.32
6 | C8U C22U A119U | -2.76
7 | C8U U78A G93U C101G C104A C124U | -3.7
8 | C8G U78A G113U C115A G120C | -2.48
9 | C8G G44C C49A C123G | 0.185
10 | C8U G61A C99U | -2.24
11 | C8U A37G C56U C73G G110U A119U | -3.74
12 | C8U C40U G60A C82A G120U | 1.65
13 | C8U U32A G60C C97A C99A G122U | -5.09
14 | C8U C13A G25U G39A G47U G63C G117C G120C | -7.2
15 | C8U C56U U96C | 0.0221
16 | C8U G23C C34U G61A G93A U109C | -6.59
17 | C8G U9G C28G G42U G48U U55A C104U G120C | -3.54
18 | C8U G61U A66U C123A U133G | 0.747
19 | C8U C20A A26C G60C | -5.68
20 | C8G G36A A74U A90G | -0.292
21 | C8G G19A G69U C79U A111G U129C U133A | -1.15

Row | Variant | polymerase ribozyme fitness (log ratio)
22 | C8U A27C G63C C79A A119G | -4.92
23 | C8U C11U A50U | -1.25
24 | C8U A50U A75U U130A | -1.78
25 | C8U C73G | -0.251
26 | C8U A26U | -2.13
27 | C8U G47C G77C U129G | -3.36
28 | C8G G63C G117C C124A | -1.86
29 | C8U C64A C115U | -6.79
30 | C8G G44U | -0.116
31 | C8G G107U G113A | -3.41
32 | C8U G61A A84C | 0.393
33 | C8U C64U C101G G110A | -3.18
34 | C8G G69U G107U G113A | -1.04
35 | C8U C49A | 0.373
36 | C8G U9G C70A | -1.19
37 | C8U C11U C70U C73U C102A | -3.01
38 | C8G G10C G23C G25A G60C C88G G110A | -7.14
39 | C8U A18U C20A A95U G117A | -3.83
40 | C8U A103U C115G | -5.83
41 | C8G U116C | -0.0708
42 | C8U G36U G39A G48U C72A U106A | -1.69

Row | Variant | polymerase ribozyme fitness (log ratio)
43 | C8U A46C G63U U106C | -1.81
44 | C8U C13U C28G C82G C114G | -4.82
45 | C8U C13A G71U C79U | -1.19
46 | C8U C56U C70A | -4.3
47 | C8G G71A C82U C101A | -1.2
48 | C8G G17U U81A U87C U96C G113A | -4.04
49 | C8G U54G | 0.644
50 | C8U G69U G93C | 0.148
51 | C8U U21A G69C U106C U112A | -0.365
52 | C8U A29U A37U U116C | -2.24
53 | C8G G44C G60A | 0.198
54 | C8U A84C G117A | -0.216
55 | C8U G52U A105G | -3.89
56 | C8U C13A G44U C72A C79U C85A | -3.38
57 | C8U A26U C49G C79U G93A | -4.36
58 | C8U U59G A75U U81G C124U | -2.31
59 | C8G G19A C76A | -3.65
60 | C8U A43G G48U C101A | -3.37
61 | C8U G51U | -2.45
62 | C8U C20U U38G C62G G113U | -3.27
63 | C8G G23U A24U A41C G60U C86G C101A G120A | -7.63

Row | Variant | polymerase ribozyme fitness (log ratio)
64 | C8U A29C U55A C56G C88A U112A U130C | -3.36
65 | C8U A16U G77U C123U | 0.933
66 | C8G G39U C123U | 1.42
67 | C8U G36U C56U C82A C89G | -2.15
68 | C8U U59G | 0.21
69 | C8G G47C C85G | -1.92
70 | C8G G63C | -1.11
71 | C8G G19U G71A G113A U130C | -2.08
72 | C8U C123A | 0.745
73 | C8U A41C A91C C123U | 0.0486
74 | C8U A50G U78A C85A | -0.938
75 | C8U C20A C53U U54A C89G | -4.08
76 | C8U C13U A68G U129G | -3.57
77 | C8U G39U A66G G113C | -4.22
78 | C8U G117U | -1.38
79 | C8G G69U | 0.724
80 | C8U G52A A68G U81A G120U | -4.33
81 | C8U C13U A103C C115A A119G | -2.38
82 | C8G U126C | -0.307
83 | C8G G35U C123A | -3.92
